Experimental data published in patent publication US20080220446A1, “Method for Detecting and/or Removing Protein and/or Peptide Comprising a Cross-Beta Structure From an Aqueous Solution Comprising a Protein” (priority 2005, published 2008).

Assays:
[1] = Thioflavin T fluorescence of protein solutions; type: physicochemical
Experimental: (§1) Fluorescence of ThT—protein/peptide adducts was measured as follows. […] Fluorescence was measured at 485 nm upon excitation at 435 nm. Background signals from buffer, buffer with ThT and protein/peptide solution without ThT were subtracted from corresponding measurements with protein solution incubated with ThT. Regularly, fluorescence of Aβ was used as a positive control, and fluorescence of FP10, a non-amyloid fibrin fragment^16, was used as a negative control. Fluorescence was measured in triplicate on a Hitachi F-4500 fluorescence spectrophotometer (Ltd., Tokyo, Japan).
(§2) Formulated protein therapeutics were obtained from the local hospital pharmacy and were used as supplied by the manufacturers. […] Lyophilized therapeutics were dissolved according to the manufacturers recommendations. GH, zinc-insulin, Cealb and gelatin were stored at −20, 4, room temperature, 37 and 65° C. Other protein therapeutics were only kept at 4° C., and assayed for the presence of cross-β structure at shown time points. Enhancement in fluorescence of ThT and Congo red was measured with all formulated protein therapeutics. For this purpose, proteins were diluted to the indicated concentrations. […] Zinc-insulin was diluted tenfold in the activation assay, GH was diluted to a final concentration of 500 μg ml^−1. Activation of factor XII and prekallikrein by the therapeutics was tested in the chromogenic factor XII assay (see above). […] After coating, plates were blocked with Blocking Reagent (Roche Diagnostics, Almere, The Netherlands).
ThT fluorescence of β2GPI was measured as follows. […] CL vesicles were prepared according to an established procedure. Briefly, CL was dried under a stream of nitrogen. The lipids were resuspended to a concentration of 10 mg ml^−1 in 25 mM Tris-HCl, pH 7.3, 150 mM NaCl by vigorous agitation, using a vortex. In the ThT fluorescence assay, fluorescence of β2GPI in buffer, of CL or DXS500k in buffer, of buffer and ThT alone, and of β2GPI-CL adducts and β2GPI-DXS500k adducts, with or without ThT, was recorded as described above (section ThT fluorescence). In addition, TEM images were recorded with CL, β2GPI from human plasma, with or without CL, and with recombinant β2GPI, as described^5.
To prepare structurally altered ovalbumin (OVA) with amyloid cross-β structures, purified OVA (Sigma, A-7641, lot 071k7094) was heated to 85° C. One mg ml^−1 OVA in 67 mM NaPi buffer pH 7.0, 100 mM NaCl, was heated for two cycles in PCR cups in a PTC-200 thermal cycler (MJ Research, Inc., Waltham, Mass., USA). In each cycle, OVA was heated from 30 to 85° C. at a rate of 5° C./min. Native OVA (nOVA) and heat-denatured OVA (dOVA) were tested in the ThT fluorescence assay and in the Plg-activation assay. In the fluorescence assay and in the Plg-activation assay, 25 and 100 μg ml^−1 nOVA and dOVA were tested, respectively. TEM images of nOVA and dOVA were taken to check for the presence of large aggregates.
MSA (#126674, Calbiochem) was dissolved in 8 M urea, 100 mM Tris-HCl pH 8.2, at 10 mg ml^−1 final concentration. Dithiothreitol (DTT) was added to a final concentration of 10 mM. Air was replaced by N2 and the solution was incubated for 2 h at room temperature. Then, the solution was transferred to ice and iodoacetamide was added from a 1 M stock to a final concentration of 20 mM. […] In the ThT-fluorescence assay 25 μg ml^−1 nMSA and alkyl-MSA were tested, and in the Plg-activation assay 100 μg ml^−1 was tested. The presence of aggregates or fibrils was analyzed using TEM. […]

[2] = target: T1, tPA (Homo sapiens, UniProt P00750); assay: tPA ELISA with coated protein therapeutics; type: binding; conditions: for binding of tPA: ELISA, stored at the recommended temperature of 4° C.
T1 sequence (P00750 36-562): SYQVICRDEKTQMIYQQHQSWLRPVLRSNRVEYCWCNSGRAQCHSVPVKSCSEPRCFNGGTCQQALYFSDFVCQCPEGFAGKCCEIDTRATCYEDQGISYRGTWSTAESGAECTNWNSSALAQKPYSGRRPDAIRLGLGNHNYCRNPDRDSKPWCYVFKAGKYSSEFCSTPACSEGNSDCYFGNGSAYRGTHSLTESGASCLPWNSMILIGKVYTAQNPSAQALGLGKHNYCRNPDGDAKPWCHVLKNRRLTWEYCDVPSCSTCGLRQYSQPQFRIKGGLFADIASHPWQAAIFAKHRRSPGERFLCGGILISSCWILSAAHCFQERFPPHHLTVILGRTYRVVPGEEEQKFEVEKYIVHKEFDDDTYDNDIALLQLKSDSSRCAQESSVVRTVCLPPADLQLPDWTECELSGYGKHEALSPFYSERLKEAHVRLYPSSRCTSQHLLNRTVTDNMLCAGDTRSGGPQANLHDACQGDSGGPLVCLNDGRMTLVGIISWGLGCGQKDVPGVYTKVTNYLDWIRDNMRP
Experimental: as §2

[3] = ThT fluorescence enhancement by biopharmaceuticals; type: physicochemical; conditions: +/− SD; five μL of protein therapeutic
Experimental: as §1
β2-GPI was reduced and alkylated as follows. Sixhundredforty μl of β2-GPI stock was mixed with 640 μl of 8 M Urea (cooled solution) in 0.1 M Tris pH-8.2. The solution was degassed with N2 gas for approximately 6 minutes. From a 1 M DTT stock 12.8 μl was added to the solution, mixed and incubated for 3 hours at room temperature. A 1 M Iodoacetamide (Sigma; I-6125) was prepared, of which 25.6 μl was added to the β2-GPI reaction mixture. The solution was subsequently dialysed against PBS. […] Signals obtained with alkyl-β2gpi are compared with those obtained with native β2gpi starting material and with positive control acid/heat denatured amyloid-like misfolded γ-globulins.
(§3) Protein therapeutics were obtained from the local hospital pharmacy and analyzed within the expiry limits as stated by the manufacturers.
(§4) Fluorescence of Thioflavin T (ThT; Sigma T-3516, St. Louis, Mo., USA) and Congo red (CR; Aldrich Chemical Company Inc., Milwaukee, Wis., USA) was measured on a Hitachi F-4500 spectrophotometer at an excitation wavelength of 435 nm and emission wavelength of 485 nm for ThT and an excitation wavelength of 550 nm and emission wavelength of 595 nm for Congo red. […] Fluorescence was measured in triplicate. Background fluorescence of both protein in buffer and dye-solution were subtracted from the total fluorescence signal. Five μg/mL fibrillar amyloid-β(1-40) E22Q (Peptide Synthesis Facility of the Dutch Cancer Institute NKI, Amsterdam, The Netherlands) was used as a positive control in all fluorescence assays.

[4] = Congo red fluorescence enhancement by biopharmaceuticals; type: physicochemical; conditions: +/− SD; five μL of protein therapeutic
Experimental: Background signals from buffer, buffer with Congo red and protein/peptide solution without Congo red were subtracted from corresponding measurements with protein solution incubated with Congo red. Fluorescence was measured in triplicate on a Hitachi F-4500 fluorescence spectrophotometer (Ltd., Tokyo, Japan).
as §3, §4

[5] = target: T1, tPA; assay: tPA binding assay with immobilized biopharmaceuticals in an ELISA; conditions: coated 1:10, one-site binding model
Experimental: Plates were washed twice with Tris buffered saline pH 7.2 containing 0.1% Tween20 (TBST) and blocked with PBS containing 1% Tween20 for 1 hour at room temperature. […] Plates were washed five times with TBST and incubated with peroxidase labeled anti-mouse immunoglobulins (RAMPO; DAKOCytomation, Glostrup, Denmark) diluted 1:3000 in PBST for 30 minutes at room temperature. Plates were washed five times with PBS 0.1% Tween20, and stained with 100 μL/well of tetramethyl-benzidine (TMB) substrate (Biosource Europe, Nivelles, Belgium). The reaction was terminated with 50 μL/well of 2 M H2SO4 and substrate conversion was read at 450 nm on a Spectramax340 microplate reader. Curves were fitted with a one-site binding model (GraphPad Prism version 4.02 for Windows, Graphpad Software, Calif., USA) from which Kd and Bmax were determined.
as §3

Row | Substance | enhancement of ThT fluorescence ([1]; stored at 4° C.) | binding of tPA [2] | Kd ([2]; tPA ELISA, immobilized protein, stored at 4° C., read-out: KD of tPA binding) | Fluorescence ThT [3] | Fluorescence CR [4] | Kd [5] | tPA Binding Bmax [5] | enhancement of ThT fluorescence ([1]; after storage at 65° C.)
1 | Somatropin: human growth hormone (Genotropin, Pharmacia) | enhance fluorescence of ThT | binding of tPA was established | 72 nM | 1317 +/− 10 a.u. | 429 +/− 2 a.u. | 9.05 nM | 0.9369 OD450 nm | –
2 | Abciximab: abciximab, an inhibitor of blood platelet aggregation (ReoPro, Centocor) | – | binding of tPA was established | – | 8 +/− 8 a.u. | 25 +/− 1 a.u. | – | 0.5329 OD450 nm | enhanced ThT fluorescence
